Reference: doi:10.1101/2022.11.23.517371

Target: nicotinate-nucleotide pyrophosphorylase (NMnPP) (Saccharomyces cerevisiae S288c) (UniProt P43619)
Experiment: negative-stain TEM

- stoichiometry N: 6
Substance: nicotinate-nucleotide pyrophosphorylase (NMnPP) (from UniProt P43619 1-295) (enzyme)
